According to the supplement of paper PMC9112550, “Optimization of the antimicrobial peptide Bac7 by deep mutational scanning” (BMC Biology, 2022):

These sequences were tested on Escherichia coli TOP10 (assay: shrunken log2 fold change of peptide-encoding DNA abundance (4.5 h post-induction vs induction); higher = less antimicrobial activity (less host growth inhibition)). Settings: time post-induction: 4.5 h; library: site-saturation at positions 5, 18, 19, 20.
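Also: peptides expressed intracellularly from a pBAD plasmid library in pooled LB shake-flask culture, induced with 0.3% L-arabinose, DNA abundance read by NGS, three biological replicates, DESeq2 with apeglm shrinkage.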

Point of comparison: RRIRMRPPRLPRPRPRPLCVPRP, “shrunken log2 fold change” value 0.361. Against it:
- RRIRSRPPRLPRPRPRPWPVPRP — lower, 0.12
- RRIRIRPPRLPRPRPRPRYTPRP — lower, -0.156
- RRIRSRPPRLPRPRPRPGKQPRP — lower, 0.00846
- RRIRKRPPRLPRPRPRPLHIPRP — lower, -0.172
- RRIRNRPPRLPRPRPRPYLKPRP — lower, -0.151
- RRIRWRPPRLPRPRPRPSNVPRP — lower, 0.108
- RRIRLRPPRLPRPRPRPHQAPRP — lower, -0.216
- RRIRCRPPRLPRPRPRPDRCPRP — lower, 0.16
- RRIRVRPPRLPRPRPRPMCLPRP — lower, -0.0244
- RRIRARPPRLPRPRPRPRHNPRP — lower, -0.0548
- RRIRGRPPRLPRPRPRPEPMPRP — higher, 0.648
- RRIRKRPPRLPRPRPRPQSEPRP — lower, 0.0585
- RRIRHRPPRLPRPRPRPIARPRP — lower, 0.116
- RRIRPRPPRLPRPRPRPYAWPRP — lower, -0.152
- RRIRHRPPRLPRPRPRPQPVPRP — within 0.2 log units, 0.259
- RRIRQRPPRLPRPRPRPQQNPRP — lower, -0.0678
- RRIRMRPPRLPRPRPRPDFLPRP — lower, 0.0612
- RRIRWRPPRLPRPRPRPEFRPRP — within 0.2 log units, 0.422
- RRIRFRPPRLPRPRPRPFQAPRP — lower, -0.91
- RRIRWRPPRLPRPRPRPFNAPRP — lower, -0.342
- RRIRARPPRLPRPRPRPQWPPRP — within 0.2 log units, 0.366
- RRIRFRPPRLPRPRPRPEDWPRP — within 0.2 log units, 0.181
- RRIRGRPPRLPRPRPRPEAHPRP — lower, 0.079
- RRIRNRPPRLPRPRPRPDATPRP — lower, 0.0488
- RRIRTRPPRLPRPRPRPGFRPRP — lower, -0.0537
- RRIRDRPPRLPRPRPRPDCHPRP — within 0.2 log units, 0.469
- RRIRCRPPRLPRPRPRPHPWPRP — lower, -0.158
- RRIRKRPPRLPRPRPRPIQTPRP — lower, 0.0355
- RRIRQRPPRLPRPRPRPDARPRP — within 0.2 log units, 0.422
- RRIRTRPPRLPRPRPRPIIQPRP — lower, -0.487
- RRIRDRPPRLPRPRPRPHIPPRP — higher, 2.08
- RRIRCRPPRLPRPRPRPKIMPRP — lower, -0.622
- RRIRDRPPRLPRPRPRPAACPRP — higher, 0.598
- RRIRDRPPRLPRPRPRPTKYPRP — lower, -0.286
- RRIRVRPPRLPRPRPRPPCTPRP — lower, -0.159
- RRIRIRPPRLPRPRPRPAGHPRP — lower, -0.159
- RRIRKRPPRLPRPRPRPCGSPRP — lower, -0.0192
- RRIRERPPRLPRPRPRPHYLPRP — lower, -0.139
- RRIRSRPPRLPRPRPRPEMNPRP — lower, 0.0588
- RRIRLRPPRLPRPRPRPFYMPRP — lower, -0.0545
- RRIRPRPPRLPRPRPRPESSPRP — higher, 1.89
- RRIRRRPPRLPRPRPRPFYSPRP — lower, -0.307
- RRIRKRPPRLPRPRPRPAHTPRP — within 0.2 log units, 0.471
- RRIRIRPPRLPRPRPRPHKNPRP — lower, -0.528
- RRIRYRPPRLPRPRPRPAGLPRP — lower, 0.125
- RRIRGRPPRLPRPRPRPEQDPRP — higher, 1.47
- RRIRKRPPRLPRPRPRPWSIPRP — lower, -0.304
- RRIRVRPPRLPRPRPRPYNTPRP — lower, -0.326
- RRIRERPPRLPRPRPRPKLFPRP — lower, -0.0593
- RRIRVRPPRLPRPRPRPVSNPRP — lower, -0.0653
- RRIRGRPPRLPRPRPRPGWIPRP — lower, 0.117
- RRIRKRPPRLPRPRPRPGCPPRP — lower, 0.0566
- RRIRRRPPRLPRPRPRPITGPRP — lower, 0.111
- RRIRCRPPRLPRPRPRPWAPPRP — lower, -0.102
- RRIRDRPPRLPRPRPRPEFTPRP — within 0.2 log units, 0.174
- RRIRCRPPRLPRPRPRPCHPPRP — lower, -0.348
- RRIRERPPRLPRPRPRPECVPRP — within 0.2 log units, 0.162
- RRIRFRPPRLPRPRPRPCAMPRP — lower, -0.561
- RRIRPRPPRLPRPRPRPAHWPRP — within 0.2 log units, 0.484
- RRIRTRPPRLPRPRPRPKRFPRP — lower, -0.00233
- RRIRSRPPRLPRPRPRPVYGPRP — lower, -0.355
- RRIRSRPPRLPRPRPRPVWCPRP — lower, 0.143
- RRIRIRPPRLPRPRPRPQKYPRP — lower, -0.784
- RRIRSRPPRLPRPRPRPVWQPRP — within 0.2 log units, 0.168
- RRIRIRPPRLPRPRPRPEREPRP — lower, 0.0556
- RRIRWRPPRLPRPRPRPHNAPRP — lower, -0.0847
- RRIRGRPPRLPRPRPRPFNYPRP — lower, -0.419
- RRIRHRPPRLPRPRPRPITVPRP — lower, -0.0184
- RRIRYRPPRLPRPRPRPWQAPRP — lower, -0.0293
- RRIRRRPPRLPRPRPRPPAIPRP — higher, 1.03
- RRIRMRPPRLPRPRPRPFMFPRP — lower, 0.0892
- RRIRLRPPRLPRPRPRPATIPRP — lower, -0.0972
- RRIRWRPPRLPRPRPRPMNDPRP — lower, -0.0845
- RRIRFRPPRLPRPRPRPVTFPRP — lower, -0.213
